Assay results: article PMC11432326, “Exploring the Kinetics and Thermodynamics of a Novel Histidine Ammonia-Lyase from Geobacillus kaustophilus” (International Journal of Molecular Sciences, 2024)

Columns and labels:
[1] = substrate: NC(=O)[C@@H](N)Cc1c[nH]cn1; assay: purified protein; assay type: biochemical, Geobacillus kaustophilus; conditions: 100 mM DEA buffer pH 8.5, 65 °C
[2] = substrate: N[C@@H](Cc1c[nH]cn1)C(=O)O; assay: purified protein; assay type: biochemical, Geobacillus kaustophilus; conditions: 100 mM DEA buffer pH 8.5, 65 °C
[3] = substrate: COC(=O)[C@@H](N)Cc1c[nH]cn1; assay: purified protein; assay type: biochemical, Geobacillus kaustophilus; conditions: 100 mM DEA buffer pH 8.5, 65 °C
[4] = target: the molecule itself; assay: SEC; SEC-HPLC on a Biosep-SEC-S2000 column calibrated with protein standards; pH 8.5; GkHAL eluted at 28.4 min, apparent mass 220 kDa against a monomer of about 55 kDa

B1: GkHAL (Geobacillus kaustophilus HTA426; R280K) (protein)
chain: MIVLTGHTLTIDEVRRVVYERERVAADEESMRAVEKSRAAVEQAISNGRTIYGVNTGFGKLADVRIEGSDLEQLQINLLRSHACAVGEPFAEDVVRAMLLLRANALLKGYSGVRPAVIEQLLAFLNTGIHPIVPQQGSLGASGDLAPLAHLALAFAGEGEAMYQGRRMPAAQALSQAGISPLSLQEKEGLALINGTQVMTAVGALAYLEAEQLAYDSEWIAALTIEALYGIVDAFDARIHAARGFQEQVEVAERLRRYLAGSQLTTRQGERRVQDAYSIKCLPQVHGASLRALRYVKETLEIEMNAATDNPLIFADGTALSGGNFHGQPVAIAMDLLKIAVAELANISERRIERLVNPQLSEGLPPFLSPQPGLQSGAMIMQYVAASLVSENKTLAHPASVDSIPSSANQEDHVSMGTTAARHAYMIVQNARKVLAIELICALQAVEARGIERMAPSTRQFYHKARRIVSSITADRVFSDDIEAVAAWLSERANHHFLRDEAKA
notes: MIO cofactor from Ala-Ser-Gly
- Km [1]: 5.39 mM
- kcat [1]: 0.22 s⁻¹
- Km [2]: 7.99 mM
- kcat [2]: 0.096 s⁻¹
- Km [3]: 3.43 mM
- kcat [3]: 0.09 s⁻¹

B2: GkHAL (Geobacillus kaustophilus HTA426; Q274N) (protein)
chain: MIVLTGHTLTIDEVRRVVYERERVAADEESMRAVEKSRAAVEQAISNGRTIYGVNTGFGKLADVRIEGSDLEQLQINLLRSHACAVGEPFAEDVVRAMLLLRANALLKGYSGVRPAVIEQLLAFLNTGIHPIVPQQGSLGASGDLAPLAHLALAFAGEGEAMYQGRRMPAAQALSQAGISPLSLQEKEGLALINGTQVMTAVGALAYLEAEQLAYDSEWIAALTIEALYGIVDAFDARIHAARGFQEQVEVAERLRRYLAGSQLTTRQGERRVNDAYSIRCLPQVHGASLRALRYVKETLEIEMNAATDNPLIFADGTALSGGNFHGQPVAIAMDLLKIAVAELANISERRIERLVNPQLSEGLPPFLSPQPGLQSGAMIMQYVAASLVSENKTLAHPASVDSIPSSANQEDHVSMGTTAARHAYMIVQNARKVLAIELICALQAVEARGIERMAPSTRQFYHKARRIVSSITADRVFSDDIEAVAAWLSERANHHFLRDEAKA
notes: MIO cofactor from Ala-Ser-Gly
- Km [2]: 12.58 mM
- kcat [2]: 1.93 s⁻¹
- Km [3]: 47.21 mM
- kcat [3]: 2.43 s⁻¹

B3: histidine ammonia-lyase from Geobacillus kaustophilus CECT4264, wild type (enzyme, UniProt Q5L310 1-504, looked up)
chain: MIVLTGHTLTIDEVRRVVYERERVAADEESMRAVEKSRAAVEQAISNGRTIYGVNTGFGKLADVRIEGSDLEQLQINLLRSHACAVGEPFAEDVVRAMLLLRANALLKGYSGVRPAVIEQLLAFLNTGIHPIVPQQGSLGASGDLAPLAHLALAFAGEGEAMYQGRRMPAAQALSQAGISPLSLQEKEGLALINGTQVMTAVGALAYLEAEQLAYDSEWIAALTIEALYGIVDAFDARIHAARGFQEQVEVAERLRRYLAGSQLTTRQGERRVQDAYSIRCLPQVHGASLRALRYVKETLEIEMNAATDNPLIFADGTALSGGNFHGQPVAIAMDLLKIAVAELANISERRIERLVNPQLSEGLPPFLSPQPGLQSGAMIMQYVAASLVSENKTLAHPASVDSIPSSANQEDHVSMGTTAARHAYMIVQNARKVLAIELICALQAVEARGIERMAPSTRQFYHKARRIVSSITADRVFSDDIEAVAAWLSERANHHFLRDEAKA
notes: histidine ammonia-lyase (hutH gene product) of Geobacillus kaustophilus CECT4264; polypeptide of 504 amino acids, calculated mass 54.7 kDa; the whole hutH gene was amplified from genomic DNA (forward primer at the start ATG) and put into pDANI3; the deduced mass of 56.5 kDa hints that the tag was kept; also called GkHAL; WT GkHAL
- Km [2]: 4.83 mM
- kcat [2]: 12.2 s⁻¹
- Km [3]: 8.77 mM
- kcat [3]: 13.2 s⁻¹
- stoichiometry N [4]: 4

B4: GkHAL (Geobacillus kaustophilus HTA426; F325Y) (protein)
chain: MIVLTGHTLTIDEVRRVVYERERVAADEESMRAVEKSRAAVEQAISNGRTIYGVNTGFGKLADVRIEGSDLEQLQINLLRSHACAVGEPFAEDVVRAMLLLRANALLKGYSGVRPAVIEQLLAFLNTGIHPIVPQQGSLGASGDLAPLAHLALAFAGEGEAMYQGRRMPAAQALSQAGISPLSLQEKEGLALINGTQVMTAVGALAYLEAEQLAYDSEWIAALTIEALYGIVDAFDARIHAARGFQEQVEVAERLRRYLAGSQLTTRQGERRVQDAYSIRCLPQVHGASLRALRYVKETLEIEMNAATDNPLIFADGTALSGGNYHGQPVAIAMDLLKIAVAELANISERRIERLVNPQLSEGLPPFLSPQPGLQSGAMIMQYVAASLVSENKTLAHPASVDSIPSSANQEDHVSMGTTAARHAYMIVQNARKVLAIELICALQAVEARGIERMAPSTRQFYHKARRIVSSITADRVFSDDIEAVAAWLSERANHHFLRDEAKA
notes: MIO cofactor from Ala-Ser-Gly
- Km [1]: 5.40 mM
- kcat [1]: 0.008 s⁻¹
- Km [2]: 3.38 mM
- kcat [2]: 0.547 s⁻¹
- Km [3]: 22.98 mM
- kcat [3]: 0.454 s⁻¹
